Measured values: article PMC3280358 (Molecular Cell, 2012)
Where a chain is given by its changes, count along the chain named. Names may count otherwise. One block for each binder: values may come before it.

Molecular target: T1, recombinant full-length FLAG-Nbs1 (human, UniProt O60934 1-754)
T1 construct: Nbs1 (Nijmegen breakage syndrome gene product), human, full length; also called recombinant full-length Nbs1; source: recombinant, a gift from Tanya Paull
T1 sequence (looked up): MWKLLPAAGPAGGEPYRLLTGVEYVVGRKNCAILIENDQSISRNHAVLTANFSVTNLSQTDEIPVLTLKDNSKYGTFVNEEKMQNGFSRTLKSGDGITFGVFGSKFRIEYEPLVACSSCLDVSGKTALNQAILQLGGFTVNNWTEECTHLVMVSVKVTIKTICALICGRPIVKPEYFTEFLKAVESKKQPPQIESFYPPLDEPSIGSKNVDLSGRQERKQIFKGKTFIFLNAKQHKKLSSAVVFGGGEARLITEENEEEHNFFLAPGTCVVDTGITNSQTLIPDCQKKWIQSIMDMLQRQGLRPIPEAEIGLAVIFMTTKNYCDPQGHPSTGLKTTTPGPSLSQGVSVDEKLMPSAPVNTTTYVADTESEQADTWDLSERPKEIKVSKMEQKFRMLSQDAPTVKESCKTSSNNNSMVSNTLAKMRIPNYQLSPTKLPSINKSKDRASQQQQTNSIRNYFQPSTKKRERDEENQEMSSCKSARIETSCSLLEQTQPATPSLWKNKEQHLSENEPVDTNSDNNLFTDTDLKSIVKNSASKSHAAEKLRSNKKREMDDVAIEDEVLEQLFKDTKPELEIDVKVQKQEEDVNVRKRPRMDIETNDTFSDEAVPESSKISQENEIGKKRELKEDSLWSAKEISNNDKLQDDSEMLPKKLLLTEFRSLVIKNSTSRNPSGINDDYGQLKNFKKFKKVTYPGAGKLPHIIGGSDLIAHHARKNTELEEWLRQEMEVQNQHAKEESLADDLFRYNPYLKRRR
Assay: far-Western, overlay or dot blot; Rad51 NTD kinase reaction (250 μM ATP) resolved by SDS-PAGE, transferred to nitrocellulose, incubated with recombinant full-length FLAG-Nbs1 (∼ 2 μg), detected with anti-Nbs1 antibody
Settings: both partners purified

binding result: binds
B1: Rad51 NTD with S14D substitution (domain or fragment, human, UniProt Q06609 1-86, looked up)
chain: MAMQMQLEANADTDVEEESFGPQPISRLEQCGINANDVKKLEEAGFHTVEAVAYAPKKELINIKGISEAKADKILAEAAKLVPMGF
notes: also called NTD S14D; source: recombinant

binding result: binds
B2: Rad51 NTD with S14E substitution (domain or fragment, human, UniProt Q06609 1-86, looked up)
chain: B1 chain with D14E
notes: also called NTD S14E; source: recombinant
